Assay [1] has as its target T1, SARS-CoV2 S protein on VSV pseudovirus (SARS-CoV-2, UniProt P0DTC2 14-1273). Kind of assay: cell-based or functional assay.
For assay [2], the target named is SARS-CoV-2 spike receptor-binding domain (RBD, amino acids 322 to 536), histidine-tagged (Example 2) (SARS-CoV-2, UniProt P0DTC2 322-536).
For assay [3], the target named is T1, SARS-CoV2 S protein on VSV pseudovirus. In words: cell-based or functional assay. The source holds these as a separate data set.
Assay [4] has as its target T2, Authentic CoV2 (SARS-CoV-2 JPN/TY/WK-521). Kind of assay: cell-based or functional assay.
Assay [5] deals with T2, Authentic CoV2. In words: cell-based or functional assay. This is another data set of the same source.
In assay [6] the target is SARS-CoV1 recombinant S protein RBD region, 9x His tag (Example 1) (SARS-CoV1, UniProt P59594 306-527). Kind of assay: ELISA on RBD-coated plate (FIG. 3). A general note: In an ELISA, binding on a coated surface is turned into a signal by an enzyme label.
The target of assay [7] is MERS-CoV recombinant S protein RBD region, 9x His tag (Example 1) (MERS-CoV, UniProt K9N5Q8 367-606). In words: ELISA on RBD-coated plate (FIG. 3).
The target of assay [8] is T3, SARS-CoV1 spike protein on VSV pseudovirus (SARS-CoV-1, UniProt P59594 14-1255). In words: cell-based or functional assay.
For assay [9], the target named is T3, SARS-CoV1 spike protein on VSV …. Kind of assay: cell-based or functional assay. The source holds these as a separate data set.

B1: NT-108 (recombinant human IgG1/kappa antibody) (antibody, V domains shown)
VH: EVQLQQSGPGLVKPSQTLSLTCSISGDSVSSNSAAWNWIRQSPSRGLEWLGRTYYRSKWYNDYAGTVKSRIAINPDTSKNQFSLHLNSVTPEDTAVYFCARVISVAGYAFDIWGQGTMVTVSS
VL: EIVLTQSPGTLSLSPGERATLSCRASQSVSSTFLAWYQQKPGQAPRLLIYGASYMATGIPDRFSGSGSGTDFTLTISRLEPEDFAVYYCQQYGSSLTFGGGTKLEIK
A word on the EC50: it is the concentration that produces a half-maximal response. As for B1, the “IC50, pseudovirus neutralization” value in assay [1] was 0.0061 µg/mL. This molecule also registered an EC50 in assay [2] of 0.455 µg/mL. Besides, the “IC50, pseudovirus neutralization [NT-108]” value in assay [3] turned out to be 0.0057 µg/mL. Moreover, the “IC50, authentic virus neutralization” value in the assay with Authentic CoV2 [4] was 0.0403 µg/mL. In the assay with Authentic CoV2 [5], the “IC50, authentic virus neutralization [NT-108]” value was determined as 0.116 µg/mL. Moreover, the binding result in assay [6] and in assay [7] was “no binding” each time.

B2: NT-108, human IgG4 subclass (antibody, V domains shown)
VH: EVQLQQSGPGLVKPSQTLSLTCSISGDSVSSNSAAWNWIRQSPSRGLEWLGRTYYRSKWYNDYAGTVKSRIAINPDTSKNQFSLHLNSVTPEDTAVYFCARVISVAGYAFDIWGQGTMVTVSS
VL: EIVLTQSPGTLSLSPGERATLSCRASQSVSSTFLAWYQQKPGQAPRLLIYGASYMATGIPDRFSGSGSGTDFTLTISRLEPEDFAVYYCQQYGSSLTFGGGTKLEIK
With B2, in [3], the “IC50, pseudovirus neutralization [NT-108]” value turned out to be 0.0031 µg/mL. For the same molecule, in the assay with Authentic CoV2 [5], the “IC50, authentic virus neutralization [NT-108]” value is 0.116 µg/mL.

B3: NT-108, human IgG2 subclass (antibody, V domains shown)
VH: EVQLQQSGPGLVKPSQTLSLTCSISGDSVSSNSAAWNWIRQSPSRGLEWLGRTYYRSKWYNDYAGTVKSRIAINPDTSKNQFSLHLNSVTPEDTAVYFCARVISVAGYAFDIWGQGTMVTVSS
VL: EIVLTQSPGTLSLSPGERATLSCRASQSVSSTFLAWYQQKPGQAPRLLIYGASYMATGIPDRFSGSGSGTDFTLTISRLEPEDFAVYYCQQYGSSLTFGGGTKLEIK
Take B3: the “IC50, pseudovirus neutralization [NT-108]” value in assay [3] was 0.002 µg/mL. For the same molecule, in the assay with Authentic CoV2 [5], the “IC50, authentic virus neutralization [NT-108]” value came out at 0.101 µg/mL.

B4: NT-108, human IgG3 subclass (antibody, V domains shown)
VH: EVQLQQSGPGLVKPSQTLSLTCSISGDSVSSNSAAWNWIRQSPSRGLEWLGRTYYRSKWYNDYAGTVKSRIAINPDTSKNQFSLHLNSVTPEDTAVYFCARVISVAGYAFDIWGQGTMVTVSS
VL: EIVLTQSPGTLSLSPGERATLSCRASQSVSSTFLAWYQQKPGQAPRLLIYGASYMATGIPDRFSGSGSGTDFTLTISRLEPEDFAVYYCQQYGSSLTFGGGTKLEIK
B4: the “IC50, pseudovirus neutralization [NT-108]” value in assay [3] turned out to be 0.001 µg/mL. In addition, the “IC50, authentic virus neutralization [NT-108]” value with Authentic CoV2 [5] was 0.049 µg/mL.

B5: NT-193 (recombinant human IgG1/kappa antibody) (antibody, V domains shown)
VH: EVQLQQWGAGLLKPSETLSLTCAVYGGSFSGYYWSWIRQPPGKGLEWIGEINHSGSTNYNPSLKSRVTISVDTSKNQFSLKLSSVTAADTAVYYCARGWDLDYYYGMDVWGQGTTVTVSS
VL: DIRMTQSPSAMSASVGDRVTVTCRASQGIGNYLAWFQLKPGKVPKRLIYAASSLQSGVPARFSGGGSGTEFTLTISSLQPEDFATYYCLQHGFLPWTFGQGTKLEIK
Take B5: the entries for the “IC50, pseudovirus neutralization” value in [1] and in assay [9] were 0.0209 µg/mL and 0.0061 µg/mL, respectively. Further, the “IC50 of the neutralizing activity against SARS-CoV (pseudovirus)” value in [8] amounted to 0.013 µg/mL. Besides, the “IC50, pseudovirus neutralization [NT-193]” value in assay [3] was found to be 0.0111 µg/mL. Further, in the assay with Authentic CoV2 [4], the “IC50, authentic virus neutralization” value was found to be 0.0851 µg/mL. For the same molecule, the “IC50, authentic virus neutralization [NT-193]” value with Authentic CoV2 [5] worked out at 0.241 µg/mL.

B6: NT-193, human IgG3 subclass (antibody, V domains shown)
VH: EVQLQQWGAGLLKPSETLSLTCAVYGGSFSGYYWSWIRQPPGKGLEWIGEINHSGSTNYNPSLKSRVTISVDTSKNQFSLKLSSVTAADTAVYYCARGWDLDYYYGMDVWGQGTTVTVSS
VL: DIRMTQSPSAMSASVGDRVTVTCRASQGIGNYLAWFQLKPGKVPKRLIYAASSLQSGVPARFSGGGSGTEFTLTISSLQPEDFATYYCLQHGFLPWTFGQGTKLEIK
For the molecule B6, the “IC50, pseudovirus neutralization [NT-193]” value in [3] was 0.001 µg/mL. Moreover, the “IC50, authentic virus neutralization [NT-193]” value with Authentic CoV2 [5] amounted to 0.127 µg/mL.

B7: NT-193, human IgG4 subclass (antibody, V domains shown)
VH: EVQLQQWGAGLLKPSETLSLTCAVYGGSFSGYYWSWIRQPPGKGLEWIGEINHSGSTNYNPSLKSRVTISVDTSKNQFSLKLSSVTAADTAVYYCARGWDLDYYYGMDVWGQGTTVTVSS
VL: DIRMTQSPSAMSASVGDRVTVTCRASQGIGNYLAWFQLKPGKVPKRLIYAASSLQSGVPARFSGGGSGTEFTLTISSLQPEDFATYYCLQHGFLPWTFGQGTKLEIK
B7: the “IC50, pseudovirus neutralization [NT-193]” value in assay [3] is 0.0044 µg/mL. In addition, in the assay with Authentic CoV2 [5], the “IC50, authentic virus neutralization [NT-193]” value is 0.247 µg/mL.

B8: NT-193, human IgG2 subclass (antibody, V domains shown)
VH: EVQLQQWGAGLLKPSETLSLTCAVYGGSFSGYYWSWIRQPPGKGLEWIGEINHSGSTNYNPSLKSRVTISVDTSKNQFSLKLSSVTAADTAVYYCARGWDLDYYYGMDVWGQGTTVTVSS
VL: DIRMTQSPSAMSASVGDRVTVTCRASQGIGNYLAWFQLKPGKVPKRLIYAASSLQSGVPARFSGGGSGTEFTLTISSLQPEDFATYYCLQHGFLPWTFGQGTKLEIK
Take B8: in assay [3], the “IC50, pseudovirus neutralization [NT-193]” value is 0.0065 µg/mL. In addition, the “IC50, authentic virus neutralization [NT-193]” value in the assay with Authentic CoV2 [5] was 0.212 µg/mL.

The values above are taken from patent publication US20240287161A1 (NATIONAL UNIVERSITY CORPORATION TOTTORI UNIVERSITY, published 2024).
